Experimental data as given in patent publication US20230141177A1.
Numbering of substitutions follows the chain as printed. In names and notes the source's numbering stands.

B1: parental antibody, PMN310 humanized antibody variant VH2/Vk5 (human IgG4 S241P / kappa) (antibody, V domains shown)
VH: QVQLVQSGAEVKKPGASVKMSCKASGYSFTSYWINWVKQRPGQGLEWIGDVHPGRGVSTYNAKFKSRATLTLDTSISTAYMELSSLRSEDTAVYYCSRSHGNTYWFFDVWGQGTTVTVSS
VL: DVLMTQSPLSLPVTLGQPASISCRSSQSIVHSNGNTYLEWYQQRPGQSPRLLIYKVSNRFSGVPDRFSGSGSGTDFTLKISRVEAEDVGVYYCFQGSHVPFTFGQGTKLEIKR
B2: Clone 4 (affinity matured VH with parental Vk, human IgG4 S241P / kappa) (antibody, V domains shown)
VH: B1 VH with S97A, S99V, H100S, G101P, N102T, T103G
VL: B1 VL
B3: Clone 5 (affinity matured VH with parental Vk, human IgG4 S241P / kappa) (antibody, V domains shown)
VH: B1 VH with S97A, S99G, H100A, G101L, N102S, T103P
VL: B1 VL
B4: Clone 14 (affinity matured VH with parental Vk, human IgG4 S241P / kappa) (antibody, V domains shown)
VH: B1 VH with S97A, R98K, H100D, G101A, N102S, T103G
VL: B1 VL

Target: AβO in the low molecular weight (LMW) fraction of pooled soluble human AD brain extract (~8 kDa to ~70 kDa) (human) (UniProt P05067)
Test: SPR; BRU on LMW fraction divided by BRU on HMW fraction; Study 1

Row | Binder | LMW/HMW ratio
1 | B1 | 1
2 | B2 | 1.32
3 | B3 | 1
4 | B4 | 1.1

Target: AβO in the low molecular weight (LMW) fraction of pooled soluble human AD brain extract (~8 kDa to ~70 kDa) (human) (UniProt P05067)
Test: SPR; BRU on LMW fraction divided by BRU on HMW fraction; Study 2

Row | Binder | LMW/HMW ratio
5 | B1 | 1.31
6 | B2 | 1.55
7 | B3 | 1.43
8 | B4 | 1.47

Target: AβO in the low molecular weight (LMW) fraction of pooled soluble human AD brain extract (~8 kDa to ~70 kDa) (human) (UniProt P05067)
Test: SPR; BRU on LMW fraction divided by BRU on HMW fraction; Study 3

Row | Binder | LMW/HMW ratio
9 | B1 | 1.52
10 | B2 | 1.54
11 | B3 | 1.2
12 | B4 | 1.45

Target: Aβ aggregates in the high molecular weight (HMW) fraction of pooled soluble human AD brain extract (>70 kDa to ~700 kDa) (human) (UniProt P05067)
Test: SPR, immobilized antibody, brain extract fraction at 100 µg/ml injected; Study 1

Row | Binder | Binding to HMW (BRU)
13 | B1 | 27
14 | B2 | 21
15 | B3 | 15
16 | B4 | 16

Target: AβO in the low molecular weight (LMW) fraction of pooled soluble human AD brain extract (~8 kDa to ~70 kDa) (human) (UniProt P05067)
Test: as above

Row | Binder | Binding to LMW (BRU)
17 | B1 | 27
18 | B2 | 28
19 | B3 | 15
20 | B4 | 18

Target: Aβ aggregates in the high molecular weight (HMW) fraction of pooled soluble human AD brain extract (>70 kDa to ~700 kDa) (human) (UniProt P05067)
Test: SPR, immobilized antibody, brain extract fraction at 100 µg/ml injected; Study 2

Row | Binder | Binding to HMW (BRU)
21 | B1 | 13.5
22 | B2 | 11.2
23 | B3 | 6.57
24 | B4 | 7.55

Target: AβO in the low molecular weight (LMW) fraction of pooled soluble human AD brain extract (~8 kDa to ~70 kDa) (human) (UniProt P05067)
Test: as above

Row | Binder | Binding to LMW (BRU)
25 | B1 | 17.7
26 | B2 | 17.3
27 | B3 | 9.42
28 | B4 | 11.1

Target: Aβ aggregates in the high molecular weight (HMW) fraction of pooled soluble human AD brain extract (>70 kDa to ~700 kDa) (human) (UniProt P05067)
Test: SPR, immobilized antibody, brain extract fraction at 100 µg/ml injected; Study 3

Row | Binder | Binding to HMW (BRU)
29 | B1 | 5
30 | B2 | 6.77
31 | B3 | 7.88
32 | B4 | 4.38

Target: AβO in the low molecular weight (LMW) fraction of pooled soluble human AD brain extract (~8 kDa to ~70 kDa) (human) (UniProt P05067)
Test: as above

Row | Binder | Binding to LMW (BRU)
33 | B1 | 7.6
34 | B2 | 10.1
35 | B3 | 9.45
36 | B4 | 6.34
